{"source": "patent US12606817B2", "about": "“Methods of creating and screening DNA-encoded libraries” (X-Chem, Inc., priority 2009, dated 2026)", "assay": "solubility of headpiece in organic solvent (DMF)", "type": "physicochemical", "settings": "DMF/water reaction mixture", "protocol": "In order to prepare a “library of 1,” a model compound, 5-(4,6-dichlorotriazinyl-aminofluorescein) (DTAF; Anaspec) (FIG. 12), was coupled to the amino group of HP-1. DTAF structurally represents a trichlorotriazine scaffold with one amino compound coupled. To form a library, trichlorotriazine scaffolds can be derivatized with a diversity of building blocks at each of the three chlorine positions. DTAF also provides a fluorescent label to the model library. The reaction (10 μl) was set up as follows. To 5 μl of 400 μM HP-1 dissolved in water, 2 μl of 750 mM borate buffer, pH 9.5, and 1 μl of DMF were added. DTAF was dissolved in DMF to 50 mM and 2 μl was added to the reaction. Final concentrations of the HP-1 and DTAF were 200 μM and 10 mM, respectively, thus generating a 50-fold excess of DTAF. The final DMF concentration was 30%. […] The reaction was allowed to proceed at 4° C. for 16-20 hours. The reaction mixture was then diluted with water to 30-50 μl and desalted on a Zeba spin column (Pierce). No further purification was completed at this point.", "data": [{"substance": "HP-1: hairpin oligonucleotide headpiece (SEQ ID NO: 51) with amino-PEG2000 linker on C5-amino-modified dT (DNA TCCTGGCTGAGGCGAGAGTTTTTCTCTCGCCTCAGCCAGGACC; amino-PEG2000 linker on C5-amino-modified dT; modified_base (21)..(21) dT-C6-NH)", "values": [{"measurement": "stayed soluble in up to % DMF", "value": "up to 90 % DMF"}]}]}
